In WO2012019024A2 (dated 2012):
Numbering of substitutions follows the chain as printed. Blank lines part the entries; values can stand above or below the molecule they belong to.

What was measured:
human HER3 [1] = target: T1, human HER3 (human, UniProt P21860 20-1342); assay: flow cytometry competition on SKBR3 cells, antibody varied against 10 nM biotinylated HRG1β1 ligand
human HER3 [2] = target: T1, human HER3; assay: Kd named as the concentration of the biotinylated reference antibody in the flow cytometry competition assay
human HER3 [3] = target: T1, human HER3; assay: cell-based or functional assay
human HER3 [4] = target: T1, human HER3; assay: flow cytometry on SKBR3 cells (endogenous HER3), apparent Kd
[5] = target: macaque HER3 extracellular domain on 300-19 cells (pSRa-chiHER3) (macaque; human); assay: flow cytometry on 300-19 cells expressing maHER3 extracellular domain, apparent Kd
human HER3 [6] = target: T1, human HER3; assay: flow cytometry on huHER3-overexpressing 300-19 cells, apparent Kd (EC50 of the binding curve)
[7] = target: macaque HER3 extracellular domain on 300-19 cells (pSRa-chiHER3) (macaque; human); assay: cell-based or functional assay
human HER3 [8] = target: T1, human HER3; assay: flow cytometry on SKBR3 cells, apparent Kd
Target sequence in this assay (P21860 20-1342 limits assumed): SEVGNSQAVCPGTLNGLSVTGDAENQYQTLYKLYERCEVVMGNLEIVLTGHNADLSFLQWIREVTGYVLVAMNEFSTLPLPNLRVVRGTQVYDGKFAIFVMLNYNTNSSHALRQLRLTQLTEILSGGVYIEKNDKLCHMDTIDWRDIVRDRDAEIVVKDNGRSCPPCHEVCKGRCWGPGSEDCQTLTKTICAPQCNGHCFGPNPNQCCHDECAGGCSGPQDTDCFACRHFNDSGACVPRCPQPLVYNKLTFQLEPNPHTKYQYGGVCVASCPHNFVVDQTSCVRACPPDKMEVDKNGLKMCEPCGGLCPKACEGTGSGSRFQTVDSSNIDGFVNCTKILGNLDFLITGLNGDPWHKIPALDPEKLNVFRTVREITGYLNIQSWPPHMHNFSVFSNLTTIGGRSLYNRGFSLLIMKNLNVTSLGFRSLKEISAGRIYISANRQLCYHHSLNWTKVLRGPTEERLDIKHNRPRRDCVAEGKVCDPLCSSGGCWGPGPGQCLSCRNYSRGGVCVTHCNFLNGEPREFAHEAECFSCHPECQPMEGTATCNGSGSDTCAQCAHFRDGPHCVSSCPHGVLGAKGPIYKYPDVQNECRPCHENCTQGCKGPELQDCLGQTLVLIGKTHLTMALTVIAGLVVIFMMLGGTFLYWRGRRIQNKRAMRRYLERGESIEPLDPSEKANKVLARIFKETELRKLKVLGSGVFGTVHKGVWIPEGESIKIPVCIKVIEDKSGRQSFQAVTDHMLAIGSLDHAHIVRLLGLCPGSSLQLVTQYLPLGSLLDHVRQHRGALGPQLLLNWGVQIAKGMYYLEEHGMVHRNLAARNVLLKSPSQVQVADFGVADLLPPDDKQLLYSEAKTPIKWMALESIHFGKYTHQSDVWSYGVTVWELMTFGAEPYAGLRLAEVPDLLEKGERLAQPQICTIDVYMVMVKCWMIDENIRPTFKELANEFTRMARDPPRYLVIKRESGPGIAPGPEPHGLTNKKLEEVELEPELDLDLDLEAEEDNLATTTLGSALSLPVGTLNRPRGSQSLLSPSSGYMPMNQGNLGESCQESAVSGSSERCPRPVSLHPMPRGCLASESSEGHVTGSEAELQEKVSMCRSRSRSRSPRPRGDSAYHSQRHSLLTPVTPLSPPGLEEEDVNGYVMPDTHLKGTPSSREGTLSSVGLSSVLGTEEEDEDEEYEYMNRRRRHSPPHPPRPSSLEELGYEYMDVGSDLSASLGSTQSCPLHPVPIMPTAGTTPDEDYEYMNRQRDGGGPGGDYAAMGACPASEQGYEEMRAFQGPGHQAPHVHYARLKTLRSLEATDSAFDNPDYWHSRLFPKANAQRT

[9] = target: macaque HER3 extracellular domain on 300-19 cells (pSRa-chiHER3) (macaque; human); assay: flow cytometry on maHER3-overexpressing 300-19 cells, apparent Kd
[10] = target: T2, chL1-S1 chimeric human/murine HER-3 ECD Fc fusion (human; murine, UniProt P21860 20-632); assay: ELISA on chL1-S1 Fc (Figure 30)
T2 construct: also called chLl-Sl; chimeric ECD comprising human L1-S1 domains and murine L2-S2 domains; not shown: murine IgG2A hinge, CH2, and CH3 region (pmuFc2ANL vector)
T2 chain: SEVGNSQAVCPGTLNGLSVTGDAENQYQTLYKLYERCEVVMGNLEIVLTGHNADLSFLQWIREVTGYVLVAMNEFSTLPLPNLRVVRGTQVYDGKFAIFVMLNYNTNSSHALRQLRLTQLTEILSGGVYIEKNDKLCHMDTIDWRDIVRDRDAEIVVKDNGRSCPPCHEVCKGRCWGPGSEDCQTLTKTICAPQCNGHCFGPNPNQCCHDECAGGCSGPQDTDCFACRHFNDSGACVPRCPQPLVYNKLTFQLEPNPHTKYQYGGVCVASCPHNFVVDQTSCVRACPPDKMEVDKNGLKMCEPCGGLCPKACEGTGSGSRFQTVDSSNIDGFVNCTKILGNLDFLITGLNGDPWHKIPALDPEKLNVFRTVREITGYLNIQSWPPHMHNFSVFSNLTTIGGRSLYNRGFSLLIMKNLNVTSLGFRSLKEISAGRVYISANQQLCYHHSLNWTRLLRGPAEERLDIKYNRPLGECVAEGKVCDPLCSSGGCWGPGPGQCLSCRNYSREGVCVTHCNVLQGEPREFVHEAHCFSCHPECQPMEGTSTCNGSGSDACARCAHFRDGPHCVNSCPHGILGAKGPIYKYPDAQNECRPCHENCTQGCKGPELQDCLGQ

human HER3 [11] = target: T1, human HER3; assay: flow cytometry on huHER3-expressing 300-19 cells
human HER3 [12] = target: T1, human HER3; assay: flow cytometry competition on SKBR3 cells, naked antibody varied, competitor biotinylated muHER3-8
human HER3 [13] = target: T1, human HER3; assay: flow cytometry on huHER3-expressing 300-19 cells, apparent Kd, comparison of murine and humanized antibody
[14] = target: T3, human HER-3 ECD Fc protein (human; murine, UniProt P21860 20-632); assay: ELISA on human HER-3 ECD Fc (Figure 28)
T3 construct: also called Fc fusion of human HER-3; not shown: murine IgG2A hinge, CH2, and CH3 region (pmuFc2ANL vector)

[15] = target: T4, murine HER-3 ECD Fc fusion (murine, UniProt Q61526 20-632); assay: ELISA on murine HER-3 ECD Fc (Figure 29)
T4 construct: 'similarly constructed' to the human fusion; also called murine HER-3-Fc; not shown: murine IgG2A hinge, CH2, and CH3 region (pmuFc2ANL vector)

human HER3 [16] = target: T1, human HER3; assay: flow cytometry on huHER3-expressing 300-19 cells (Figure 15)
human HER3 [17] = target: T1, human HER3; assay: flow cytometry competition on SKBR3 cells, competitor biotinylated muHER3-8
[18] = target: T5, chL2-S2 chimeric human/murine HER-3 ECD Fc fusion (murine; human, UniProt Q61526 20-632); assay: ELISA on chL2-S2 Fc
T5 construct: also called chL2-S2-Fc; chimeric ECD comprising murine L1-S1 domains and human L2-S2 domains; not shown: murine IgG2A hinge, CH2, and CH3 region (pmuFc2ANL vector)
T5 chain: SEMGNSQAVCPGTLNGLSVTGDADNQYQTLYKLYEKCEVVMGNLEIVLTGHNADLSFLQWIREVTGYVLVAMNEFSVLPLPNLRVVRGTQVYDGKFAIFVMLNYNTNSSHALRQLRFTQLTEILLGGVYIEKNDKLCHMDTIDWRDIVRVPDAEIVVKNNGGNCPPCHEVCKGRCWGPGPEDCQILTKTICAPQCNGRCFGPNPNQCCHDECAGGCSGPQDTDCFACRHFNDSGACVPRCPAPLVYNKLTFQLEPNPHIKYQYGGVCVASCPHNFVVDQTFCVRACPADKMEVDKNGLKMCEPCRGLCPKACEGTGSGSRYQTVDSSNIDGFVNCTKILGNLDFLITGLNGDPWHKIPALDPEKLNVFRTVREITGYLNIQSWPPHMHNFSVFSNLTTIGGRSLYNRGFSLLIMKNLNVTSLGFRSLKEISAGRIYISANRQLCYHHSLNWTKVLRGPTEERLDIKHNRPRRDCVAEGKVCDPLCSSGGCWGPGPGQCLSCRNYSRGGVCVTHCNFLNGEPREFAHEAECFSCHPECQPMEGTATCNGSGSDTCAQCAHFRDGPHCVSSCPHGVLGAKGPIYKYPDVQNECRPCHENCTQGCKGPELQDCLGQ

macaque HER3 extracellular domain on 300-19 cells (pSRa-chiHER3) (macaque; human), sequence (P21860 644-1342, form in doubt): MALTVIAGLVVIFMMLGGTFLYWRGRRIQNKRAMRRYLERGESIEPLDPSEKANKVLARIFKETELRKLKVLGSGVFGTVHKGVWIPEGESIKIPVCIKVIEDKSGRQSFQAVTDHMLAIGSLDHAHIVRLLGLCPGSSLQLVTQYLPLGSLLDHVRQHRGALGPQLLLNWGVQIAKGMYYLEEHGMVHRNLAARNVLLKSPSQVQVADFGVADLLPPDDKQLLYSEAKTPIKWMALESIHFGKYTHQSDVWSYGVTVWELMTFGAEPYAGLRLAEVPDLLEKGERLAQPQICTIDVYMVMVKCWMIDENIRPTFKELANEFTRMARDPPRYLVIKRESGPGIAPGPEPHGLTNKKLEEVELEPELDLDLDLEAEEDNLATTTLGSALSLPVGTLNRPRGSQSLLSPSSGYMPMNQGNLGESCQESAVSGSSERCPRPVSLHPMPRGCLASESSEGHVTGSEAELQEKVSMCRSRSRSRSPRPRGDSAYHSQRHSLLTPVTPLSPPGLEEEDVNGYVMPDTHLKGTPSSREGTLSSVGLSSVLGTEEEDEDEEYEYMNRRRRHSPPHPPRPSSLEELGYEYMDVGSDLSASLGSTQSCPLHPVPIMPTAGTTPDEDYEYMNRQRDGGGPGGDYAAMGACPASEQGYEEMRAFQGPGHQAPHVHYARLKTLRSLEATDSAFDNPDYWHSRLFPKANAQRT

EC50 (human HER3 [1]): 2.2 nM
Kd (human HER3 [2]): 1 nM
Molecule: U3-Pharma/Amgen's U1-59 antibody

Molecule: chKTI-SMCC-DM1 conjugate (antibody)
in vitro cytotoxicity EC50 (WST-8 surviving fraction), huHER3-overexpressing 300-19 cells (human HER3 [3]): 53 nM

Molecule: chKTI-SPDB-DM4 conjugate (antibody)
in vitro cytotoxicity EC50 (WST-8 surviving fraction), huHER3-overexpressing 300-19 cells (human HER3 [3]): 4.4 nM

HRG1β1-induced AKT phosphorylation (pAKT level, % of ligand-only control), whole cell ELISA, MCF7 cells, 10 µg/ml antibody (human HER3 [3]): < 50%
HRG1β1-induced HER3 phosphorylation (pHER3 level, % of ligand-only control), whole cell ELISA, MCF7 cells, 10 µg/ml antibody (human HER3 [3]): < 20%
Kd (human HER3 [4]): 0.21 nM
Kd [5]: 0.14 nM
Kd (human HER3 [6]): 0.3 nM
EC50 (human HER3 [1]): 0.32 nM
B1: muHER3-3 antibody (antibody, mouse IgG1, kappa, V domains shown)
VH: QVQLQQPGAELVMPGASVKMSCKASGYTFTDYWIHWVKQRPGQGLEWIGAIDTDTYTSYNQQFKGKATLTVDESSSTAYMQLSSLTSEDSAVYYCARSLLRLLYFDYWGQGTTLTVSS
VL: DIVMTQSPATLSVTPGDRVSLSCRASQSITDYLHWYQQKSHESPRLLIKFASQSISGIPSRFSGSGSGSDFTLSINSVEPEDVGVYYCQNGHSFPLTFGAGTKLELKR
notes: also called HER3-3 (murine)

Kd (human HER3 [8]): 0.49 nM
Kd [9]: 0.29 nM
B2: huHER3-8-SMCC-DM1 conjugate (antibody, V domains shown)
VH: QVQLQESGPGLVKPSQSLSLTCTVTGSSITSDYAWNWIRQHPGNKLEWMGFISYSGSTSYNPSLKSRISITRDTSKNQFFLHLSSVTAADTATYYCSRRLGRLYYFDYWGQGTLLTVSS
VL: EIVMTQSPATLSVTPGDRVSLSCRASQSINDYLHWYQQKPGQSPRLLIKFASHSISGIPDRFSGSGSGSDFTLTISSVEPEDVGVYYCQNGHSFPWTFGGGTKLEIKR
modifications: SMCC-DM1 maytansinoid linked to the antibody, 3.5-4 DM1 molecules per antibody; attachment residues and chain not stated
notes: Immunoconjugate of huHER3-8 (v.1.00) with human constant regions; also called huHER3-8-SMCC-DMl
in vitro cytotoxicity EC50 (WST-8 surviving fraction), maHER3-overexpressing 300-19 cells [7]: 0.059 nM
in vitro cytotoxicity EC50 (WST-8 surviving fraction), huHER3-overexpressing 300-19 cells (human HER3 [3]): 0.17 nM

Kd (human HER3 [8]): 0.29 nM
Kd [9]: 0.23 nM
B3: huHER3-8-SPDB-DM4 conjugate (antibody, V domains shown)
VH: B2 VH
VL: B2 VL
modifications: SPDB-DM4 maytansinoid linked to the antibody, 3.5-4 DM4 molecules per antibody; attachment residues and chain not stated
notes: Immunoconjugate of huHER3-8 (v.1.00) with human constant regions
in vitro cytotoxicity EC50 (WST-8 surviving fraction), maHER3-overexpressing 300-19 cells [7]: 0.099 nM
in vitro cytotoxicity EC50 (WST-8 surviving fraction), huHER3-overexpressing 300-19 cells (human HER3 [3]): 0.18 nM

binding result [10]: binds
Kd (human HER3 [8]): 0.14 nM
fold increase of binding affinity against muHER3-8 (human HER3 [11]): ~2 fold
Kd [9]: 0.19 nM
EC50 (human HER3 [12]): 0.24 nM
Kd (human HER3 [13]): 0.12 nM
B4: huHER3-8v.1.00 antibody (antibody, V domains shown)
VH: B2 VH
VL: B2 VL
notes: Recombinant humanized antibody with human constant regions; also called huHER3-8 naked antibody

HRG1β1-induced AKT phosphorylation (pAKT level, % of ligand-only control), whole cell ELISA, MCF7 cells, 10 µg/ml antibody (human HER3 [3]): < 50%
HRG1β1-induced HER3 phosphorylation (pHER3 level, % of ligand-only control), whole cell ELISA, MCF7 cells, 10 µg/ml antibody (human HER3 [3]): < 20%
HRG1β1-induced MCF7 cell proliferation (WST-8, % of ligand-only control), 10 µg/ml antibody (human HER3 [3]): 40%
Kd (human HER3 [4]): 0.31 nM
Kd [5]: 0.24 nM
Kd (human HER3 [6]): 0.23 nM
EC50 (human HER3 [12]): 0.76 nM
EC50 (human HER3 [1]): 0.29 nM
Kd (human HER3 [2]): 0.2 nM
B5: muHER3-8 antibody (antibody, mouse IgG1, V domains shown)
VH: B2 VH with Q1D, K13T, H41F, A88S, A89E, R99K, L114T
VL: B1 VL with T30N, Q53H, S74T, L96W, A100G, L106I
notes: also called HER3-8 (murine)

Kd (human HER3 [8]): 0.27 nM
Kd [9]: 0.28 nM
B6: huHER3-8-PEG4-mal-DM1 conjugate (antibody, V domains shown)
VH: B2 VH
VL: B2 VL
modifications: PEG4-mal-DM1 maytansinoid linked to the antibody, 3.5-4 maytansinoid molecules per antibody; attachment residues and chain not stated
notes: Immunoconjugate of huHER3-8 (v.1.00) with human constant regions; also called huHER3-8-PEG-mal-DM1; huHER3-8-PEG4-Mal-DMl
in vitro cytotoxicity EC50 (WST-8 surviving fraction), maHER3-overexpressing 300-19 cells [7]: 0.045 nM

B7: huHER3-3-SMCC-DM1 conjugate (antibody, V domains shown)
VH: B1 VH with Q5V, L11V, M13K, Q62K, K64Q
VL: B2 VL with S20T, N30T, H53Q, T74S, W96L, G100Q, I106L
modifications: SMCC-DM1 maytansinoid linked to the antibody, 3.5-4 DM1 molecules per antibody; attachment residues and chain not stated
in vitro cytotoxicity EC50 (WST-8 surviving fraction), huHER3-overexpressing 300-19 cells (human HER3 [3]): 0.19 nM

binding result [10]: binds
binding result [14]: binds
binding result [15]: binds
binding result (human HER3 [16]): binds
B8: huHER3-3 antibody (antibody, V domains shown)
VH: B1 VH with Q5V, L11V, M13K, Q62K, K64Q
VL: B2 VL with S20T, N30T, H53Q, T74S, W96L, G100Q, I106L
notes: Recombinant humanized antibody with human constant regions (pAbGlNeo / pAbKZeo plasmids), expressed in HEK 293T; also called humanized (resurfaced) HER3-3

binding result (human HER3 [17]): binds
B9: huHER3-8v.1.01 antibody (antibody, V domains shown)
VH: B2 VH with R99K
VL: B2 VL
notes: Recombinant humanized antibody with human constant regions; murine lysine 95 of heavy chain CDR3 retained

HRG1β1-induced AKT phosphorylation (pAKT level, % of ligand-only control), whole cell ELISA, MCF7 cells, 10 µg/ml antibody (human HER3 [3]): < 50%
HRG1β1-induced HER3 phosphorylation (pHER3 level, % of ligand-only control), whole cell ELISA, MCF7 cells, 10 µg/ml antibody (human HER3 [3]): < 20%
Kd (human HER3 [4]): 0.052 nM
Kd [5]: 0.042 nM
Kd (human HER3 [6]): 0.068 nM
B10: muHER3-10 antibody (antibody, mouse IgG1, V domains shown)
VH: EVQLQQSGPELVKPGVSMKISCKASGYSFTDYTMNWVKQSHGKNLEWIGLINPYNDITAYNQKFKGKATLSVNKSSSTAYMELLSLTSEDSAVYYCARRGPRGAWFAYWGQGTLVTVSA
VL: NIVLTQSPASLAVSLGQRATISCRASTSVYNYGNSFMHWYQQMPGQPPKLLIYLASNLESGVPARFSGSGSRTDFTLTIDPVEADDAATYYCQQNSEDPWTFGGGTKLEIKR
notes: also called HER3-10 (murine)

binding result [18]: no binding
binding result [10]: binds
B11: huHER3-10 antibody (antibody, V domains shown)
VH: B10 VH with E1Q, Q5V, L11V, S28T, H41P, K43Q, K65Q, N73D
VL: B10 VL with N1D, L15P, D85N, G104Q
notes: Recombinant humanized antibody with human constant regions; also called huHer-10; humanized (resurfaced) HER3-10
